{"source": "patent US20100285988", "key": {"[1]": {"tested_on": "βCTF-FLAG (recombinant β-secretase cleaved APP C-terminal fragment)"}, "[2]": {"tested_on": "βCTFΔ (Aβ17-23 deleted form of βCTF)"}, "[3]": {"tested_on": "Aβ17-23 (LVFFAED) peptide"}}}
{"substance": "γ-secretase (human; HeLa cell membrane / solubilized HeLa membrane; endogenous in HEK293 cells)", "values": [{"measurement": "Vmax", "setting": "[1]", "value": "Vmax values are 16±1 and 215±24 min^-1 µg^-1 for βCTF and βCTFΔ, respectively"}, {"measurement": "apparent Km (Aβ40 production, ECL)", "setting": "[1]", "value": "the apparent Km is 0.47±0.09 µM for βCTF"}, {"measurement": "rate of γ-secretase hydrolysis (X40 product, ECL) relative to αCTF-FLAG", "setting": "[1]", "value": "The rate of γ-secretase hydrolysis of βCTF-FLAG is 12-fold greater than for hydrolysis of αCTF-FLAG"}, {"measurement": "Vmax", "setting": "[2]", "value": "Vmax values are 16±1 and 215±24 min^-1 µg^-1 for βCTF and βCTFΔ, respectively"}, {"measurement": "Vmax/Km or kcat/Km relative to βCTF", "setting": "[2]", "value": "is 42-fold greater than for the βCTF substrate"}, {"measurement": "apparent Km (Aβ40 production, ECL)", "setting": "[2]", "value": "0.26±0.09", "unit": "µM for βCTFA"}, {"measurement": "potency on Notch cleavage relative to APP-derived substrates", "setting": "[3]", "value": "the potency of this peptide is 6-fold less potent in the proteolytic cleavage of Notch by γ-secretase than that of APP-derived substrates"}]}
